Experimental data: patent US20020110883

Molecular target: microtubules

B1: Kip3A 353 protein (protein)
chain: MAVEDSTLQVVVRVRPPTPRELDSQRRPVVQVVDERVLVFNPEEPDGGFPGLKWGGTHDGPKKKGKDLTFVFDRVFGEAATQQDVFQHTTHSVLDSFLQGYNCSVFAYGATGAGKTHTMLGREGDPGIMYLTTVELYRRLEARQQEKHFEVLISYQEVYNEQIHDLLEPKGPLAIREDPDKGVVVQGLSFHQPASAEQLLEILTRGNRNRTQHPTDANATSSRSHAIFQIFVKQQDRVPGLTQAVQVAKMSLIDLAGSERASSTHAKGERLREGANINRSLLALINVLNALADAKGRKTHVPYRDSKLTRLLKDSLGGNCRTVMIAAISPSSLTYEDTYNTLKYADRAKEIRLKGNSKLEGKPIPNPLLGLDSTRTGHHHHHH
Km for microtubule stimulation (coupled PK/LDH ATPase assay, Michaelis-Menten fit): Km for microtubule stimulation of 4.6 ug/ml | Vmax of microtubule-stimulated ATPase (coupled PK/LDH ATPase assay, Michaelis-Menten fit): Vmax 0.85 uM ADP/s | kcat of microtubule-stimulated ATPase (from Vmax): corresponds to a kcat value of 15s^-
